Results from publication PMC2864300, “Regulation of NOXO1 Activity through Reversible Interactions with p22^phox and NOXA1” (PLoS ONE, 2010).
pKd: −log10 of the molar value.

How the values were obtained:
[1] = target: human NOXO1 SH3AB–E triple mutant (proline residues 323, 326 and 329 to alanine) (human); experiment: ITC; MicroCal VP-ITC, 18°C; 150 mM NaCl, 1 mM DTT, 50 mM HEPES pH 7.4; typically 20–40 µM protein in the cell, 200–300 µM ligand injected; single-site binding model; averaged over three to five experiments
[2] = target: human NOXO1 SH3AB–E (tandem SH3 domains plus the C-terminal portion of NOXO1) (human); experiment: as above
[3] = target: human NOXO1 tandem SH3 domains (SH3AB) (human); experiment: as above
[4] = target: p67phox C-terminal SH3 (Homo sapiens) (UniProt P19878); details: cited from earlier work
p67phox C-terminal SH3 (Homo sapiens), sequence (P19878 457-516): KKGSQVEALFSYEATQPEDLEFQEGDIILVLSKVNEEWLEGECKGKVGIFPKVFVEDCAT

[5] = target: mouse NOXO1 tandem SH3 domains (SH3AB) (mouse); experiment: ITC; MicroCal VP-ITC, 18°C; 150 mM NaCl, 1 mM DTT, 50 mM HEPES pH 7.4; typically 20–40 µM protein in the cell, 200–300 µM ligand injected; single-site binding model; averaged over three to five experiments
[6] = target: p22phox cytoplasmic domain (Homo sapiens) (UniProt P13498); details: cited from earlier work
p22phox cytoplasmic domain (Homo sapiens), sequence (P13498 132-195): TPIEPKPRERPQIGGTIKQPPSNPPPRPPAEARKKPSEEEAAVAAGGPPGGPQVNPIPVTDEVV

p47phox C-terminal proline-rich region, sequence (P14598 359-390): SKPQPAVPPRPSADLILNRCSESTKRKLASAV
p47phox tandem SH3, sequence (P14598 156-285): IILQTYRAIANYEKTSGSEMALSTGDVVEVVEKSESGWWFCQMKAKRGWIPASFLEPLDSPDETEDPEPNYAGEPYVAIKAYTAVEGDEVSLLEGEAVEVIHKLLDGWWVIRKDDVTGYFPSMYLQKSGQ

Substance: human p22^phox cytoplasmic domain (p22^phoxC) (domain or fragment)
- pKd [1]: 6.28
- dH [1]: -8.1 kcal/mol
- dH [2]: -3.2 kcal/mol
- pKd [3]: 6.82
- dH [3]: -16.8 kcal/mol

Substance: p47phox C-terminal proline-rich region (from UniProt P14598)
- pKd [4]: 7.70

Substance: mouse p22^phox cytoplasmic domain (p22^phoxC) (from UniProt Q61462 127-192) (domain or fragment)
- pKd [5]: 7.17
- dH [5]: -12.9 kcal/mol

Substance: p47phox tandem SH3 (from UniProt P14598)
- pKd [6]: 6.72
